The target in the test is T1, Recombinant human Fc-tagged NRXN2α (human Nrxn2α-Fc, R&D Systems #6636-NX) (human, UniProt Q9P2S2 29-1636).
T1 construct: Neurexin2α (Nrxn2α), human, ectodomain; The catalogue number is printed for the pull-down only; Limits and splice variant are in the supplier's data sheet; also called soluble Nrxn2α ectodomain; soluble Nrxn2α; source: bought: R&D Systems (#6636-NX), highly purified
Put plainly: SPR; Biacore T200; IgSF21-His amine-coupled to a CM5 chip (500 RU); NRXN2α-Fc as analyte, 0 to 200 nM; PBS pH 7.4, 0.025% Tween-20, 25°C, 20 μl/min; one-site Langmuir (1:1) model, kinetic analysis. To be noted: both partners purified. For orientation: SPR reads the build-up and loss of mass on a sensor chip optically.

T1 sequence (Q9P2S2 29-1636): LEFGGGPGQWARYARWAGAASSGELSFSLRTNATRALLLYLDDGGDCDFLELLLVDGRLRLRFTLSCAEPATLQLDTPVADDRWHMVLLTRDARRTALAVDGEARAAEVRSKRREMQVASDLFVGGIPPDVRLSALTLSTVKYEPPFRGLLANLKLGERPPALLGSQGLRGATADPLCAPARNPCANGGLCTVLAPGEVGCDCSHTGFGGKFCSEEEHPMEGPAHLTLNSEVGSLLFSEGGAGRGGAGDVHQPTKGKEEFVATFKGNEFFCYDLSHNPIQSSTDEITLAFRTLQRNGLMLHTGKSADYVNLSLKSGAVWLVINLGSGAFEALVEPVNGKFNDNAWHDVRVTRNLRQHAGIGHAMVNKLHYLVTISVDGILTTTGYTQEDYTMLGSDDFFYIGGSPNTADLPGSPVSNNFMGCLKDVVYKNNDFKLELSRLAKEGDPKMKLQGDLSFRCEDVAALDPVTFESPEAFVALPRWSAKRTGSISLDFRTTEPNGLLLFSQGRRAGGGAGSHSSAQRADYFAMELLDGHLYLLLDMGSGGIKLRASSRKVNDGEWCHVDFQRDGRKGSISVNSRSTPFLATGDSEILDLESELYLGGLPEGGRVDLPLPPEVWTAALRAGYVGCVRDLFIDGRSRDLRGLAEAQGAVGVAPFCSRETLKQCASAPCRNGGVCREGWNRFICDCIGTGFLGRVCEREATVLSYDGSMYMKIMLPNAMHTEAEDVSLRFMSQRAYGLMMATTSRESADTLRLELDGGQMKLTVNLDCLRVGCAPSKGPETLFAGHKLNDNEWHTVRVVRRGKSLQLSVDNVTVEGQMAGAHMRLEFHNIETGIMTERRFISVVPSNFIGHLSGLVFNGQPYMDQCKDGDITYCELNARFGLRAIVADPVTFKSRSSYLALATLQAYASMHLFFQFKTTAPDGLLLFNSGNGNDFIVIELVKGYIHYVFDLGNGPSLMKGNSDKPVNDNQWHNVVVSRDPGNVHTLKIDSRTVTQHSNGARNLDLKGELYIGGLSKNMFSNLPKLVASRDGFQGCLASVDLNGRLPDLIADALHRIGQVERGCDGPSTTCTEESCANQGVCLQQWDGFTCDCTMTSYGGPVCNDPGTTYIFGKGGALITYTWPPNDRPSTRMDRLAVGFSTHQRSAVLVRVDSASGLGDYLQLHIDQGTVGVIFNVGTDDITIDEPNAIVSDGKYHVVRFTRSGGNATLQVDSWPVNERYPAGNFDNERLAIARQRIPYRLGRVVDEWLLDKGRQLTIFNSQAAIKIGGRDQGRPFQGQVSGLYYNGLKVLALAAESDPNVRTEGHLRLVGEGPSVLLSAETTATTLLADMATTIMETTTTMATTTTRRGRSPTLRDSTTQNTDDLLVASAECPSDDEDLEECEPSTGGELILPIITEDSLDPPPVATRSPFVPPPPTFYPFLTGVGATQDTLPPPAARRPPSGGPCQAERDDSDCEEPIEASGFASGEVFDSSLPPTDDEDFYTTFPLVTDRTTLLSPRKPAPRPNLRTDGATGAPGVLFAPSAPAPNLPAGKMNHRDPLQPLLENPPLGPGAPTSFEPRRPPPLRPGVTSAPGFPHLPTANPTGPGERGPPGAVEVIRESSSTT

B1: Recombinant human His-tagged IgSF21 protein (R&D Systems #10330-S2) (natural protein, UniProt Q96ID5 25-444, looked up)
chain: YLTVNIEPLPPVVAGDAVTLKCNFKTDGRMREIVWYRVTDGGTIKQKIFTFDAMFSTNYSHMENYRKREDLVYQSTVRLPEVRISDNGPYECHVGIYDRATREKVVLASGNIFLNVMAPPTSIEVVAADTPAPFSRYQAQNFTLVCIVSGGKPAPMVYFKRDGEPIDAVPLSEPPAASSGPLQDSRPFRSLLHRDLDDTKMQKSLSLLDAENRGGRPYTERPSRGLTPDPNILLQPTTENIPETVVSREFPRWVHSAEPTYFLRHSRTPSSDGTVEVRALLTWTLNPQIDNEALFSCEVKHPALSMPMQAEVTLVAPKGPKIVMTPSRARVGDTVRILVHGFQNEVFPEPMFTWTRVGSRLLDGSAEFDGKELVLERVPAELNGSMYRCTAQNPLGSTDTHTRLIVFENPNIPRGTEDSN
notes: Immunoglobulin superfamily member 21 (IgSF21), human, soluble recombinant protein; Soluble bought protein, probably the ectodomain without the GPI-anchor signal; also called IgSF21-His; human IgSF21-His; source: bought: R&D Systems (#10330-S2), purified
As to B1, the Kd worked out at 5.67 nM.

By Kd is commonly meant a measure of binding affinity in units of concentration.
